The results in this text go back to paper PMC8163065, “Involvement of the R2R3-MYB transcription factor MYB21 and its homologs in regulating flavonol accumulation in Arabidopsis stamen”.

This data set addresses T1, GST-MYB21 (Arabidopsis thaliana, UniProt Q9LK95 1-226).
T1 sequence: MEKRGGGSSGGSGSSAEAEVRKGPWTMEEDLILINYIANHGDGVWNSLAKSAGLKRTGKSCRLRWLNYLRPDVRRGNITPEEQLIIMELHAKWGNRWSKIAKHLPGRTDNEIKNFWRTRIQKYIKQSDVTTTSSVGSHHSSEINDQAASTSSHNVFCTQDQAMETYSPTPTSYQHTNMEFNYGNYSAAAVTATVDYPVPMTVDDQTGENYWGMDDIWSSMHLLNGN
Briefly: EMSA; LightShift Chemiluminescent EMSA kit (Thermo), per manufacturer; buffer, salt, pH and temperature not stated. As to conditions: protein: recombinant; tags: N-terminal GST (pGEX-4T-1); label: biotin (via primer S18, 5' tail); blunt. In general terms: In EMSA bound probe runs differently from free probe, usually more slowly.

B1: GARE2 FLS1 promoter probe (dsDNA)
DNA 1: AGCCAGTGGCGATAAGCTGGGCCTTGTCTTGTTATATGGGCCTTGAATC
DNA 2: GATTCAAGGCCCATATAACAAGACAAGGCCCAGCTTATCGCCACTGGCT
With B1, the binding result is on record as “binds”.

B2: GARE1 FLS1 promoter probe (dsDNA)
DNA 1: AGCCAGTGGCGATAAGCTCTCACCTTTTTTTTGTTATTTTATATCTTAAG
DNA 2: CTTAAGATATAAAATAACAAAAAAAAGGTGAGAGCTTATCGCCACTGGCT
In the case of B2, the binding result is reported as “binds”.
